Our source for the binding values is article PMC1182371.

This series has as its target KLF15-ZF-GST (human) (UniProt Q9UIH9). Briefly: DNase I footprinting. Particulars: EMSA: 4 mM HEPES, 5 mM EGTA, 100 mM KCl, 0.25 mM ZnCl2, 0.02% NP40, 0.1 M DTT, 4% glycerol, 90-120 min on ice, pH not stated, footprinting: same buffer. On the technique in general: Mobility shift assays separate free from complexed probe on a gel.

Chain of KLF15-ZF-GST (human) (Q9UIH9 294-416): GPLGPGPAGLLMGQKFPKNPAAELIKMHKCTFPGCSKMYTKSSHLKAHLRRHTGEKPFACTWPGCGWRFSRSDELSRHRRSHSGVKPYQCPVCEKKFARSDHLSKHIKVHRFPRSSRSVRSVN

With “CGCCGGCGGCGCGAACCCGGGGATGCTTCTGAGGCCGGAGCTCAGCCACACGGGGCTCCGGCTGGACGACTCGTGGCTCCAACTCCCCCCCCAGGCCCTTATGAAGTGACCTCCCCTCCCTAAGCTCCCGGCTGAATCAGCACCTCGGAGATTGGGGGCGTTATTAATCATATTAATCCTCACTGCTGCAACGAGGGGCTTAATTGGCTTCCAGGTGGGGCCAAGGTGACTCCAGGTAGAAGGCTGTGGTCGGGGAGAAGGCGGGGCGTGCTGGGGACCCTGGGAAAGAGCAGAGGCCT (double strand) [bovine Rho -225 to +70]”, the binding entry was “binds”.

As for “GAAGTGACCTCCCCTCCCTAAGCTCCCGGCTGAATCAGCACCTCGGAGATTGGGGGCGTTATTAATCATATTAATCCTCACTGCTGCAACGAGGGGCTTAATTGGCTTCCAGGTGGGGCCAAGGTGACTCCAGGTAGAAGGCTGTGGTCGGGGAGAAGGCGGGGCGTGCTGGGGACCCTGGGAAAGAGCAGAGGCCTGCCCCCAACTCCCCTGTCCCCCTCTGGCATCTCAGCTGATGGCCCTGGCCTGGCATTGGGACCCCTAGCTCTAGGCCCACTTCCCTCT (double strand) [bovine Rho -315 to -31]”, the binding result is listed as “binds”.
